This is an account of results in paper PMC11417369, “DNA sequence and chromatin differentiate sequence-specific transcription factor binding in the human malaria parasite Plasmodium falciparum”.

Common to all, as to assay: gcPBM; about 25 ug protein; PBS, 1% milk, 0.2 mg/ml BSA, salmon testes DNA, 0.03% Triton X-100
Details in all cases: tags: N-terminal GST (pGEX-4T-1), kept; label: surface-attached array probe

For one data set, the target named is T1, PF3D7_0420300 D1 (Plasmodium falciparum, UniProt Q8I1N6 1956-2015).
T1 sequence: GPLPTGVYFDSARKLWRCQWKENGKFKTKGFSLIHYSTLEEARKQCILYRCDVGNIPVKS

The target in another data set is T2, AP2-LT D1 (Plasmodium falciparum, UniProt Q8IAM1 2520-2577).
T2 sequence: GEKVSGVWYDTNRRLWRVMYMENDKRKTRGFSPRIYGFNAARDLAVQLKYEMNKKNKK

The target of another data set is T3, AP2-HC D1 (Plasmodium falciparum, UniProt Q8IKR9 1316-1374).
T3 sequence: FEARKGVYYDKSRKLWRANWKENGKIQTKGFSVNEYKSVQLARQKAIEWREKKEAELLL

B1: CACACA_site6310 (dsDNA)
DNA 1: ATACATCAAGGACACACACACACACGCACACGCACA
DNA 2: TGTGCGTGTGCGTGTGTGTGTGTGTCCTTGATGTAT
For the molecule B1, the binding signal with PF3D7_0420300 D1 is 10.4 ln median PBM intensity, better of two orientations; in the data set with AP2-LT D1, 10.6 ln median PBM intensity, better of two orientations.

B2: CACACA_negctrl_site676 (dsDNA)
DNA 1: TATTTATTGTGATACTTATATTACTTAATGATTAAA
DNA 2: TTTAATCATTAAGTAATATAAGTATCACAATAAATA
As to B2, the binding signal is 9.03 ln median PBM intensity, better of two orientations in the data set with PF3D7_0420300 D1 and 8.81 ln median PBM intensity, better of two orientations with AP2-LT D1.

B3: CACACA_negctrl_site1507 (dsDNA)
DNA 1: TCTTTAAATCGAGTGTTAAATAATATAATATAAAAA
DNA 2: TTTTTATATTATATTATTTAACACTCGATTTAAAGA
B3: the binding signal in the data set with PF3D7_0420300 D1 is 9 ln median PBM intensity, better of two orientations; in the data set with AP2-LT D1 it was 8.73 ln median PBM intensity, better of two orientations.

B4: CACACA_negctrl_site12 (dsDNA)
DNA 1: TTCTTCTAATCCTTTTATCTCATTAAAAAAATATAA
DNA 2: TTATATTTTTTTAATGAGATAAAAGGATTAGAAGAA
Regarding B4, the binding signal with PF3D7_0420300 D1 is 8.97 ln median PBM intensity, better of two orientations; in the data set with AP2-LT D1, 8.51 ln median PBM intensity, better of two orientations.

B5: CACACA_site2826 (dsDNA)
DNA 1: AGATATAAGAAAAGCACACACACACCCAAAAAAAAA
DNA 2: TTTTTTTTTGGGTGTGTGTGTGCTTTTCTTATATCT
On to B5, for which the binding signal with AP2-HC D1 is 12.1 ln median PBM intensity, better of two orientations.

B6: CACACA_site8824 (dsDNA)
DNA 1: GATAATTATGGACACACACACACACCCACAACTAAA
DNA 2: TTTAGTTGTGGGTGTGTGTGTGTGTCCATAATTATC
For the molecule B6, in the data set with AP2-HC D1, the binding signal is 12 ln median PBM intensity, better of two orientations.

B7: CACACA_site1716 (dsDNA)
DNA 1: GGGGGGGGAGGGTGAATACACACGTAATAATCATAA
DNA 2: TTATGATTATTACGTGTGTATTCACCCTCCCCCCCC
With B7, the binding signal in the data set with PF3D7_0420300 D1 was 10.5 ln median PBM intensity, better of two orientations; with AP2-LT D1 it was 10 ln median PBM intensity, better of two orientations.

B8: CACACA_site8688 (dsDNA)
DNA 1: AAAACACGCGGACACACACACACACCCACCCATATA
DNA 2: TATATGGGTGGGTGTGTGTGTGTGTCCGCGTGTTTT
B8: the binding signal was 10.6 ln median PBM intensity, better of two orientations in the data set with PF3D7_0420300 D1 and 10.7 ln median PBM intensity, better of two orientations with AP2-LT D1.

B9: CACACA_site2302 (dsDNA)
DNA 1: GACATATTCCCCCCCACACACACACCCACATACATA
DNA 2: TATGTATGTGGGTGTGTGTGTGGGGGGGAATATGTC
B9: the binding signal in the data set with PF3D7_0420300 D1 is 10.9 ln median PBM intensity, better of two orientations; with AP2-LT D1, 10.9 ln median PBM intensity, better of two orientations.

B10: CACACA_site8115 (dsDNA)
DNA 1: AGAAAATACACGCATACACACACACCCACCCACATA
DNA 2: TATGTGGGTGGGTGTGTGTGTATGCGTGTATTTTCT
Take B10: the binding signal was 10.6 ln median PBM intensity, better of two orientations in the data set with PF3D7_0420300 D1 and 10.7 ln median PBM intensity, better of two orientations with AP2-LT D1.

B11: CACACA_negctrl_site1047 (dsDNA)
DNA 1: TTCACATGAAGAATTAAAATAAAACTAGGAAATTAA
DNA 2: TTAATTTCCTAGTTTTATTTTAATTCTTCATGTGAA
Consider B11, for which the binding signal is 9.06 ln median PBM intensity, better of two orientations in the data set with PF3D7_0420300 D1 and 8.81 ln median PBM intensity, better of two orientations in the data set with AP2-LT D1.

B12: CACACA_negctrl_site1587 (dsDNA)
DNA 1: TTATAATATAAAAATAAATAAATAAATAAATAAATA
DNA 2: TATTTATTTATTTATTTATTTATTTTTATATTATAA
Consider B12, for which the binding signal with PF3D7_0420300 D1 was 9.04 ln median PBM intensity, better of two orientations; in the data set with AP2-LT D1, 8.74 ln median PBM intensity, better of two orientations.

B13: CACACA_site6387 (dsDNA)
DNA 1: TTAACAAATAGACACACACACACACGCAAAAAAAAA
DNA 2: TTTTTTTTTGCGTGTGTGTGTGTGTCTATTTGTTAA
On to B13, for which the binding signal with AP2-HC D1 was 12 ln median PBM intensity, better of two orientations.

B14: CACACA_site1515 (dsDNA)
DNA 1: AGTACAGACATAGACACACACACACCCATAAAAAAA
DNA 2: TTTTTTTATGGGTGTGTGTGTGTCTATGTCTGTACT
In the case of B14, in the data set with AP2-HC D1, the binding signal is 12.1 ln median PBM intensity, better of two orientations.

B15: CACACA_site4405 (dsDNA)
DNA 1: TATATATATCTGTACACACACACATATAAATAAATA
DNA 2: TATTTATTTATATGTGTGTGTGTACAGATATATATA
B15: the binding signal in the data set with PF3D7_0420300 D1 was 10 ln median PBM intensity, better of two orientations; with AP2-LT D1 it was 10.1 ln median PBM intensity, better of two orientations.

B16: CACACA_site7288 (dsDNA)
DNA 1: AAAAAAAAAAAAAACACACACACACGCACATATACA
DNA 2: TGTATATGTGCGTGTGTGTGTGTTTTTTTTTTTTTT
With B16, in the data set with AP2-HC D1, the binding signal is 11.9 ln median PBM intensity, better of two orientations.

B17: CACACA_site6254 (dsDNA)
DNA 1: TATTTATTAAGACACACACACACACGCACAAAATAA
DNA 2: TTATTTTGTGCGTGTGTGTGTGTGTCTTAATAAATA
As for B17, in the data set with AP2-HC D1, the binding signal was 12.1 ln median PBM intensity, better of two orientations.

B18: CACACA_site2623 (dsDNA)
DNA 1: TAATAAATAAATGACACACACACACCCAAAAAAAAA
DNA 2: TTTTTTTTTGGGTGTGTGTGTGTCATTTATTTATTA
Consider B18, for which the binding signal in the data set with AP2-HC D1 was 12.1 ln median PBM intensity, better of two orientations.

B19: CACACA_site4111 (dsDNA)
DNA 1: CCCCCCGTGTTATATACACACATAATCAAATAAAAT
DNA 2: ATTTTATTTGATTATGTGTGTATATAACACGGGGGG
In the case of B19, the binding signal with PF3D7_0420300 D1 is 10.8 ln median PBM intensity, better of two orientations; in the data set with AP2-LT D1 it was 10.8 ln median PBM intensity, better of two orientations.

B20: CACACA_site6551 (dsDNA)
DNA 1: ATAAAAAGGAGACACACACACACACGCATATTTATA
DNA 2: TATAAATATGCGTGTGTGTGTGTGTCTCCTTTTTAT
As for B20, the binding signal with AP2-HC D1 was 12 ln median PBM intensity, better of two orientations.

B21: CACACA_site6304 (dsDNA)
DNA 1: CACACGCACGAACACACACACACACGCGCACATATA
DNA 2: TATATGTGCGCGTGTGTGTGTGTGTTCGTGCGTGTG
Consider B21, for which the binding signal is 10.4 ln median PBM intensity, better of two orientations with PF3D7_0420300 D1 and 10.7 ln median PBM intensity, better of two orientations with AP2-LT D1.

B22: CACACA_site5303 (dsDNA)
DNA 1: CCCCCCCACGGACACACACACATACATACCACATAT
DNA 2: ATATGTGGTATGTATGTGTGTGTGTCCGTGGGGGGG
Regarding B22, the binding signal was 11 ln median PBM intensity, better of two orientations with PF3D7_0420300 D1 and 11.2 ln median PBM intensity, better of two orientations in the data set with AP2-LT D1.

B23: CACACA_site8058 (dsDNA)
DNA 1: AACATACATAAACACACACACACACCCACACCCACA
DNA 2: TGTGGGTGTGGGTGTGTGTGTGTGTTTATGTATGTT
Take B23: the binding signal is 10.4 ln median PBM intensity, better of two orientations in the data set with PF3D7_0420300 D1 and 10.6 ln median PBM intensity, better of two orientations in the data set with AP2-LT D1.

B24: CACACA_site3848 (dsDNA)
DNA 1: ATAAAACAAAAACACACACACATACACAAAAAAAAA
DNA 2: TTTTTTTTTGTGTATGTGTGTGTGTTTTTGTTTTAT
Regarding B24, the binding signal with AP2-HC D1 was 12.2 ln median PBM intensity, better of two orientations.

B25: CACACA_negctrl_site189 (dsDNA)
DNA 1: AAGTTTATTATATATAAATTATTATATATATATATA
DNA 2: TATATATATATATAATAATTTATATATAATAAACTT
Take B25: the binding signal is 9.02 ln median PBM intensity, better of two orientations in the data set with PF3D7_0420300 D1 and 8.75 ln median PBM intensity, better of two orientations with AP2-LT D1.

B26: CACACA_site5283 (dsDNA)
DNA 1: AATATAAATAAAAACACACACACACCGATATATATA
DNA 2: TATATATATCGGTGTGTGTGTGTTTTTATTTATATT
B26: the binding signal was 10.3 ln median PBM intensity, better of two orientations with PF3D7_0420300 D1 and 10.3 ln median PBM intensity, better of two orientations with AP2-LT D1.

B27: CACACA_site8849 (dsDNA)
DNA 1: AAAAAAAAAAAACACACACACACACCGATACATACA
DNA 2: TGTATGTATCGGTGTGTGTGTGTGTTTTTTTTTTTT
For B27, the binding signal in the data set with AP2-HC D1 is 12 ln median PBM intensity, better of two orientations.
